From publication PMC6303327, “A structural and dynamic model for the assembly of Replication Protein A on single-stranded DNA” (Nature Communications, 2018)

Target: T1, Rfa3 DNA-binding domain-E (DBD-E), OB domain, residues 1-99 (S. cerevisiae, UniProt P26755 1-99, fluorescent label NT-495 (Monolith NT protein-labeling Kit Blue-Cys) on free cysteine residues)
T1 construct: Rfa3 (RPA14 in humans), S. cerevisiae Replication Protein A smallest subunit, residues 1-99; the C-terminal trimerisation helix is removed; 3C-cleavable GST fusion; also called Rfa3-OB; Rfa3-OB domain; source: E. coli BL21 (DE3), purified (glutathione sepharose 4B, on-column 3C cleavage, SEC)
T1 sequence (P26755 1-99): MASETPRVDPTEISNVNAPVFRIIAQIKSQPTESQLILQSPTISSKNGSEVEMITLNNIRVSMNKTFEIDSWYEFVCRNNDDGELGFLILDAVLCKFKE
Assay: MST; 50 nM NT-495-labeled DBD-E (or mutant) mixed with equal volumes of a dilution series of DBD-A or DBD-A^S178D; 20 mM Tris pH 7.5, 150 mM NaCl, 0.5 mM TCEP, 0.01% Tween-20, 0.1 mg/ml BSA; 25 °C; apparent EC50 from the Hill equation
Conditions: both partners purified

| EC50 [µM] | Binder |
| --- | --- |
| ~100 | Rfa1 DNA-binding domain-A (DBD-A), residues 178-294 (domain or fragment, S. cerevisiae, UniProt P22336 178-294, looked up, Rfa1 (RPA70 in humans), S. cerevisiae Replication Protein A largest subunit, DBD-A, residues 178-294; amplified from the codon-optimized RPA expression plasmid, cloned into pOPINJ; 3C-cleavable GST fusion; also called Rfa1-DBD-A; source: E. coli BL21 (DE3), purified (glutathione sepharose 4B, on-column 3C cleavage, SEC)) SQKTRPIFAIEQLSPYQNVWTIKARVSYKGEIKTWHNQRGDGKLFNVNFLDTSGEIRATAFNDFATKFNEILQEGKVYYVSKAKLQPAKPQFTNLTHPYELNLDRDTVIEECFDESN |
| ~30 | Rfa1 DBD-A (residues 178-294) phosphomimetic S178D (domain or fragment, S. cerevisiae, UniProt P22336 178-294, looked up, Rfa1, S. cerevisiae, DBD-A, residues 178-294 with S178D (first residue of the fragment); also called DBD-A^S178D; S178D mutant DBD-A; source: E. coli BL21 (DE3), purified (glutathione sepharose 4B, on-column 3C cleavage, SEC)) DQKTRPIFAIEQLSPYQNVWTIKARVSYKGEIKTWHNQRGDGKLFNVNFLDTSGEIRATAFNDFATKFNEILQEGKVYYVSKAKLQPAKPQFTNLTHPYELNLDRDTVIEECFDESN |
